Experimental data reported in article PMC6532856, “A single dose of antibody-drug conjugate cures a stage 1 model of African trypanosomiasis” (PLoS Neglected Tropical Diseases, 2019).

B1: Tb017 scFv (scFv, V domains shown)
VH: QVQLVQSGAEVKKPGSSVKVSCKASGGTFSSYAISWVRQAPGQGLEWMGGIIPIFGTANYAQKFQGRVTITADESTSTAYMELSSLRSEDTAVYYCARGWWYDLVFDYWGQGTLVTVSS
VL: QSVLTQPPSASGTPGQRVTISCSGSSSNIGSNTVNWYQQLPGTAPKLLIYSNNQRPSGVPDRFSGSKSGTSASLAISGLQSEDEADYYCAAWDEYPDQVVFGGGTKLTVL
notes: framework domains and CDR1-3 marked; source: phage produced from E. coli, phage-containing supernatant
B2: Tb078 scFv (scFv, V domains shown)
VH: QVQLVQSGAEVKKPGSSVKVSCKASGGTFSSYAISWVRQAPGQGLEWMGGIIPIFGTANYAQKFQGRVTITADESTSTAYMELSSLRSEDTAVYYCARGWIYEFIIDAWGQGTLVTVSS
VL: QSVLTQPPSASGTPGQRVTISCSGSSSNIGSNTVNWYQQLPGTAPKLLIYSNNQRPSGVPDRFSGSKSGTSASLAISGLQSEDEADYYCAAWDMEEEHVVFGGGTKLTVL
notes: as for B1
B3: Tb074 scFv (scFv, V domains shown)
VH: QVQLVQSGAEVKKPGSSVKVSCKASGGTFSSYAISWVRQAPGQGLEWMGGIIPIFGTANYAQKFQGRVTITADESTSTAYMELSSLRSEDTAVYYCARGWWHEPGFDYWGQGTLVTVSS
VL: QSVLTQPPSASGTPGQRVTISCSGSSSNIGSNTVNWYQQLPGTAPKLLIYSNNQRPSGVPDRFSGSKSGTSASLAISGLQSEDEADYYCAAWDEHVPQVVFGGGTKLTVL
notes: as for B1
B4: Tb086 scFv (scFv, V domains shown)
VH: QVQLVQSGAEVKKPGSSVKVSCKASGGTFSSYAISWVRQAPGQGLEWMGGIIPIFGTANYAQKFQGRVTITADESTSTAYMELSSLRSEDTAVYYCARGWYYHGGIDYWGQGTLVTVSS
VL: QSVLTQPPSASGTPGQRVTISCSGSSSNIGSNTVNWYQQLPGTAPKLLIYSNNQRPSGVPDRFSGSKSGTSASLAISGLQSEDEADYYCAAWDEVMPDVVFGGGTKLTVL
notes: as for B1
B5: Tb085 scFv (scFv, V domains shown)
VH: QVQLVQSGAEVKKPGSSVKVSCKASGGTFSSYAISWVRQAPGQGLEWMGGIIPIFGTANYAQKFQGRVTITADESTSTAYMELSSLRSEDTAVYYCAREGWDYGWFDFWGQGTLVTVSS
VL: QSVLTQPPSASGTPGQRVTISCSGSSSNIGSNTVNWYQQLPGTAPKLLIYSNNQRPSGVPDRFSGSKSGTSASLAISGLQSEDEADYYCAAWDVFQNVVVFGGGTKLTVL
notes: as for B1
B6: Tb073 scFv (scFv, V domains shown)
VH: QVQLVQSGAEVKKPGSSVKVSCKASGGTFSSYAISWVRQAPGQGLEWMGGIIPIFGTANYAQKFQGRVTITADESTSTAYMELSSLRSEDTAVYYCARGWYDMGDFDMWGQGTLVTVSS
VL: QSVLTQPPSASGTPGQRVTISCSGSSSNIGSNTVNWYQQLPGTAPKLLIYSNNQRPSGVPDRFSGSKSGTSASLAISGLQSEDEADYYCAAWDWHHGHVVVFGGGTKLTVL
notes: as for B1

Biological target: T1, Recombinant HpHbR N-terminal domain (Trypanosoma brucei haptoglobin-haemoglobin receptor) (Trypanosoma brucei brucei, biotin (only for the protein coated on streptavidin-coated plates; site not stated))
T1 construct: also called HpHbR NTD; TbHpHbR NTD; source: recombinant, expressed as previously described [34]
Test: ELISA; phage ELISA: 10 ug/ml TbHpHbR NTD coated onto Nunc Maxisorp plates or 5 ug/mL biotinylated protein on streptavidin-coated plates overnight at 4°C; blocked phage supernatants 1 hr at room temperature; bound phage detected with anti-M13 HRP antibody; BSA and streptavidin in parallel
Conditions: one partner purified

| Binder | binding result |
| --- | --- |
| B1 | binds |
| B2 | binds |
| B3 | binds |
| B4 | binds |
| B5 | binds |
| B6 | binds |
